From patent US20140134179A1 (published 2014) come the findings set out here.

For one assay, the target named is mTEM8. Kind of assay: ELISA. A general note: An ELISA detects its analyte on a solid surface through an enzyme-linked reagent.
In assay [1] the target is human TEM8 on CHO cells (CHO-TEM8) (UniProt Q9H6X2 33-564). Kind of assay: flow cytometry, inhibition of PA-FITC binding. In general terms: In flow cytometry, cells or beads pass a laser one at a time.
The target in assay [2] is T1, hTEM8(ED)-Fc fusion protein (UniProt Q9H6X2 33-321).
T1 chain: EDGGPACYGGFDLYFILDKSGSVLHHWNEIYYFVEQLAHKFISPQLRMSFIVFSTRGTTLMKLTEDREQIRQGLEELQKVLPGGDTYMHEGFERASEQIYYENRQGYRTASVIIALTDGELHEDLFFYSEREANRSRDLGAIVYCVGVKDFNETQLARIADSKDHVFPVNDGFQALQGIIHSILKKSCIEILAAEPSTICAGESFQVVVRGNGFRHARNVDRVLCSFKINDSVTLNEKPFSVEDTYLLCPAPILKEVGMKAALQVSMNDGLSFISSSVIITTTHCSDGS
Kind of assay: ELISA.

B1: L5 (Fab, V domains shown)
VH: QVQLVESGGGLVQPGGSLRLSCAASGFTFNSYGLSWVRQAPGKGLEWVSNISSNGSYTYYADSVKGRFTISRDNSKNTLYLQMNSLRAEDTAVYYCARAGYGLFDVWGQGTLVTVSS
VL: DIELTQPPSVSVAPGQTARISCSGDKLREYYVHWYQQKPGQAPVLVIYGDNKRPSGIPERFSGSNSGNTATLTISGTQAEDEADYYCSSWAGSRSGTVFGGGTKLTVL
By EC50 is commonly meant the midpoint of the concentration-response curve. Regarding B1, in the assay with mTEM8, a half-maximal response (EC50) required 0.22 nM.

B2: L2 Fab (Fab, V domains shown)
VH: QVQLKESGPALVKPTQTLTLTCTFSGFSLSTSGGGVSWIRQPPGKALEWLAHIYSNDDKSYSTSLKTRLTISKDTSKNQVVLTMTNMDPVDTATYYCARGGYFLDYWGQGTLVTVSS
VL: DIELTQPPSVSVAPGQTARISCSGDNIGGIYVHWYQQKPGQAPVLVIYADSKRPSGIPERFSGSNSGNTATLTISGTQAEDEADYYCQSYDITSLVFGGGTKLTVL
Take B2: a half-maximal effect in assay [1] (EC50) was put at 0.0218 µg/mL.

B3: L2 (Fab, V domains shown)
VH: QVQLKESGPALVKPTQTLTLTCTFSGFSLSTSGGGVSWIRQPPGKALEWLAHIYSNDDKSYSTSLKTRLTISKDTSKNQVVLTMTNMDPVDTATYYCARGGYFLDYWGQGTLVTVSS
VL: DIELTQPPSVSVAPGQTARISCSGDNIGGIYVHWYQQKPGQAPVLVIYADSKRPSGIPERFSGSNSGNTATLTISGTQAEDEADYYCQSYDITSLVFGGGTKLTVL
Take B3: the response with mTEM8 was half-maximal at 0.28 nM (EC50).

B4: L1 (Fab, V domains shown)
VH: QVQLVESGGGLVQPGGSLRLSCAASGFTFNSYAMSWVRQAPGKGLEWVSLISSGSSTYYADSVKGRFTISRDNSKNTLYLQMNSLRAEDTAVYYCARAGFKFDNWGQGTLVTVSS
VL: DIELTQPPSVSVAPGQTARISCSGDSIPNYSVSWYQQKPGQAPVLVIYADSNRPSGIPERFSGSNSGNTATLTISGTQAEDEADYYCQSYDNTSPDLVFGGGTKLTVLG
In turn, B4 yielded an EC50 with mTEM8 of 0.21 nM.

B5: L1 Fab (Fab, V domains shown)
VH: QVQLVESGGGLVQPGGSLRLSCAASGFTFNSYAMSWVRQAPGKGLEWVSLISSGSSTYYADSVKGRFTISRDNSKNTLYLQMNSLRAEDTAVYYCARAGFKFDNWGQGTLVTVSS
VL: DIELTQPPSVSVAPGQTARISCSGDSIPNYSVSWYQQKPGQAPVLVIYADSNRPSGIPERFSGSNSGNTATLTISGTQAEDEADYYCQSYDNTSPDLVFGGGTKLTVLG
As for B5, the EC50 in assay [1] was found to be 0.0342 µg/mL; in assay [2], 0.18 nM.

B6: L3 Fab (Fab, V domains shown)
VH: QVQLQQSGPGLVKPSQTLSLTCAISGDSVSTNGAAWGWIRQSPGRGLEWLGRIYYRSKWYNDYAVSVKSRITINPDTSKNQFSLQLNSVTPEDTAVYYCARMPGGFLFDLWGQGTLVTVSS
VL: DIELTQPPSVSVAPGQTARISCSGDNIRSYYAHWYQQKPGQAPVLVIYGDSKRPSGIPERFSGSNSGNTATLTISGTQAEDEADYYCSSYASHDYVFGGGTKLTVLG
In the case of B6, the EC50 in assay [1] was 0.0364 µg/mL.

B7: L3 (Fab, V domains shown)
VH: QVQLQQSGPGLVKPSQTLSLTCAISGDSVSTNGAAWGWIRQSPGRGLEWLGRIYYRSKWYNDYAVSVKSRITINPDTSKNQFSLQLNSVTPEDTAVYYCARMPGGFLFDLWGQGTLVTVSS
VL: DIELTQPPSVSVAPGQTARISCSGDNIRSYYAHWYQQKPGQAPVLVIYGDSKRPSGIPERFSGSNSGNTATLTISGTQAEDEADYYCSSYASHDYVFGGGTKLTVLG
Turning to B7, the response in the assay with mTEM8 was half-maximal at 0.36 nM (EC50).
